T1: human nectin-4 protein expressed on the surface of cells (human, UniProt Q96NY8 32-510)
T1 sequence: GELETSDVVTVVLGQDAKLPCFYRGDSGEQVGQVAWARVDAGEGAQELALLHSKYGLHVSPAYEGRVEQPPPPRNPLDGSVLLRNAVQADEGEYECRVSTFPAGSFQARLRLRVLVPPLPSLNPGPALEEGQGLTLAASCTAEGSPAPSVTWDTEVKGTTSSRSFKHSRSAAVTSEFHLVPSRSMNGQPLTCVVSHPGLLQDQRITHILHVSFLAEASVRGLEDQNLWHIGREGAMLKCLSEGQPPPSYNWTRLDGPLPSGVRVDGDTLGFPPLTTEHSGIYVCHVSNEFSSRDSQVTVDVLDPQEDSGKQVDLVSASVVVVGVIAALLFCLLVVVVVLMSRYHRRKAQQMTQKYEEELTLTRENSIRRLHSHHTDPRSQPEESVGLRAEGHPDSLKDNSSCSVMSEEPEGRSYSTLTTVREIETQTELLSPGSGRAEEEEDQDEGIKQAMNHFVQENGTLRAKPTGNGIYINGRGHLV

T2: recombinant human Nectin-4-His protein (human, UniProt Q96NY8 32-349)
T2 construct: Rescreening antigen and bought ELISA antigen are treated as one molecule; also called human Nectin-4-His tagged; Ag1; not shown: His tag
T2 sequence: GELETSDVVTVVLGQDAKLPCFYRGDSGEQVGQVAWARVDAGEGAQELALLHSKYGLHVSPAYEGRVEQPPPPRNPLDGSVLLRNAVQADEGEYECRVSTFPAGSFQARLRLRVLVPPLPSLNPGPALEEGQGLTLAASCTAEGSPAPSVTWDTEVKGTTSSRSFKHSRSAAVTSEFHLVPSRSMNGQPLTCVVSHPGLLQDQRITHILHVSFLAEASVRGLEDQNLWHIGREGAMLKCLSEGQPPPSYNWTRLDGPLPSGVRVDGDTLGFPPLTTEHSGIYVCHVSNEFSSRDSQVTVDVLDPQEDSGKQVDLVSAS

B1: Nectin-4 5D9 VH1/VL1 (antibody, V domains shown)
VH: QVQLKESGPGLVQPSETLSLTCTVSGFSITNYGVHWIRQSPGKGLEWLGVIWSGGSTDYNAAFVSRVTISRDNSKSQVFFKLNSVQADDTAVYYCARSGKWYYFDYWGQGTTVTVSS
VL: DIQMTQSPASLSASVGDTVTITCRASQNIYSNLAWYQQKQGKSPQLLVYAATNLADGVPSRFSGSGSGTQYTLKINSLQSEDFGTYYCQHFWGTPTFGGGTKVEIK
notes: Humanized; also called 5D9 VH variant 1 / 5D9 VL variant 1
B2: Nectin-4 5D9 VH1/VL3 (antibody, V domains shown)
VH: QVQLKESGPGLVQPSETLSLTCTVSGFSITNYGVHWIRQSPGKGLEWLGVIWSGGSTDYNAAFVSRVTISRDNSKSQVFFKLNSVQADDTAVYYCARSGKWYYFDYWGQGTTVTVSS
VL: DIQMTQSPSSLSASVGDRVTITCRASQSIYSNLAWYQQKPGKAPKLLVYAATNLASGVPSRFSGSGSGTDFTLTISSLQPEDFATYYCQHFWGTPTFGGGTKVEIK
notes: Humanized; also called 5D9 VH variant 1 / 5D9 VL variant 3
B3: Nectin-4 5D9 VH1/VL2 (antibody, V domains shown)
VH: QVQLKESGPGLVQPSETLSLTCTVSGFSITNYGVHWIRQSPGKGLEWLGVIWSGGSTDYNAAFVSRVTISRDNSKSQVFFKLNSVQADDTAVYYCARSGKWYYFDYWGQGTTVTVSS
VL: DIQMTQSPSSLSASVGDTVTITCRASQNIYSNLAWYQQKQGKAPKLLVYAATNLADGVPSRFSGSGSGTDFTLKINSLQPEDFATYYCQHFWGTPTFGGGTKVEIK
notes: Humanized; also called 5D9 VH variant 1 / 5D9 VL variant 2
B4: Nectin-4 5D9 VH1/VL4 (antibody, V domains shown)
VH: QVQLKESGPGLVQPSETLSLTCTVSGFSITNYGVHWIRQSPGKGLEWLGVIWSGGSTDYNAAFVSRVTISRDNSKSQVFFKLNSVQADDTAVYYCARSGKWYYFDYWGQGTTVTVSS
VL: DIQMTQSPSSLSASVGDRVTITCRASENIYSNLAWYQQKPGKAPKLLVYAATNLADGVPSRFSGSGSGTDYTLTISSLQPEDFATYYCQHFWGTPTFGGGTKVEIK
notes: Humanized; also called 5D9 VH variant 1 / 5D9 VL variant 4
B5: Nectin-4 5D9 VH2/VL1 (antibody, V domains shown)
VH: QVQLQESGPGLVKPSETLSLTCTVSGFSITNYGVHWIRQPPGKGLEWLGVIWSGGSTDYNASLVSRVTISRDTSKSQFFLKLNSVQADDTAVYYCARSGKWYYFDYWGQGTTVTVSS
VL: DIQMTQSPASLSASVGDTVTITCRASQNIYSNLAWYQQKQGKSPQLLVYAATNLADGVPSRFSGSGSGTQYTLKINSLQSEDFGTYYCQHFWGTPTFGGGTKVEIK
notes: Humanized; also called 5D9 VH variant 2 / 5D9 VL variant 1
B6: Nectin-4 5D9 VH1/VL5 (antibody, V domains shown)
VH: QVQLKESGPGLVQPSETLSLTCTVSGFSITNYGVHWIRQSPGKGLEWLGVIWSGGSTDYNAAFVSRVTISRDNSKSQVFFKLNSVQADDTAVYYCARSGKWYYFDYWGQGTTVTVSS
VL: DIQMTQSPSSLSASVGDRVTITCRASQSIYSNLAWYQQKPGKAPKLLVYAATNLQSGVPSRFSGSGSGTDFTLTISSLQPEDFATYYCQHFWGTPTFGGGTKVEIK
notes: Humanized; also called 5D9 VH variant 1 / 5D9 VL variant 5
B7: Nectin-4 5D9 VH2/VL2 (antibody, V domains shown)
VH: QVQLQESGPGLVKPSETLSLTCTVSGFSITNYGVHWIRQPPGKGLEWLGVIWSGGSTDYNASLVSRVTISRDTSKSQFFLKLNSVQADDTAVYYCARSGKWYYFDYWGQGTTVTVSS
VL: DIQMTQSPSSLSASVGDTVTITCRASQNIYSNLAWYQQKQGKAPKLLVYAATNLADGVPSRFSGSGSGTDFTLKINSLQPEDFATYYCQHFWGTPTFGGGTKVEIK
notes: Humanized; also called 5D9 VH variant 2 / 5D9 VL variant 2
B8: Nectin-4 5D9 VH3/VL3 (antibody, V domains shown)
VH: QVQLQESGPGLVKPSETLSLTCTVSGGSITNYGVHWIRQPPGKGLEWLGVIWSGGSTDYNPSLKSRVTISVDTSKNQFSLKLSSVTAADTAVYYCARSGKWYYFDYWGQGTLVTVSS
VL: DIQMTQSPSSLSASVGDRVTITCRASQSIYSNLAWYQQKPGKAPKLLVYAATNLASGVPSRFSGSGSGTDFTLTISSLQPEDFATYYCQHFWGTPTFGGGTKVEIK
notes: Humanized; also called 5D9 VH variant 3 / 5D9 VL variant 3
B9: Nectin-4 5D9 VH3/VL2 (antibody, V domains shown)
VH: QVQLQESGPGLVKPSETLSLTCTVSGGSITNYGVHWIRQPPGKGLEWLGVIWSGGSTDYNPSLKSRVTISVDTSKNQFSLKLSSVTAADTAVYYCARSGKWYYFDYWGQGTLVTVSS
VL: DIQMTQSPSSLSASVGDTVTITCRASQNIYSNLAWYQQKQGKAPKLLVYAATNLADGVPSRFSGSGSGTDFTLKINSLQPEDFATYYCQHFWGTPTFGGGTKVEIK
notes: Humanized; also called 5D9 VH variant 3 / 5D9 VL variant 2
B10: Nectin-4 5D9 VH2/VL3 (antibody, V domains shown)
VH: QVQLQESGPGLVKPSETLSLTCTVSGFSITNYGVHWIRQPPGKGLEWLGVIWSGGSTDYNASLVSRVTISRDTSKSQFFLKLNSVQADDTAVYYCARSGKWYYFDYWGQGTTVTVSS
VL: DIQMTQSPSSLSASVGDRVTITCRASQSIYSNLAWYQQKPGKAPKLLVYAATNLASGVPSRFSGSGSGTDFTLTISSLQPEDFATYYCQHFWGTPTFGGGTKVEIK
notes: Humanized; also called 5D9 VH variant 2 / 5D9 VL variant 3
B11: Nectin-4 5D9 VH3/VL4 (antibody, V domains shown)
VH: QVQLQESGPGLVKPSETLSLTCTVSGGSITNYGVHWIRQPPGKGLEWLGVIWSGGSTDYNPSLKSRVTISVDTSKNQFSLKLSSVTAADTAVYYCARSGKWYYFDYWGQGTLVTVSS
VL: DIQMTQSPSSLSASVGDRVTITCRASENIYSNLAWYQQKPGKAPKLLVYAATNLADGVPSRFSGSGSGTDYTLTISSLQPEDFATYYCQHFWGTPTFGGGTKVEIK
notes: Humanized; also called 5D9 VH variant 3 / 5D9 VL variant 4
B12: Nectin-4 5D9 VH3/VL5 (antibody, V domains shown)
VH: QVQLQESGPGLVKPSETLSLTCTVSGGSITNYGVHWIRQPPGKGLEWLGVIWSGGSTDYNPSLKSRVTISVDTSKNQFSLKLSSVTAADTAVYYCARSGKWYYFDYWGQGTLVTVSS
VL: DIQMTQSPSSLSASVGDRVTITCRASQSIYSNLAWYQQKPGKAPKLLVYAATNLQSGVPSRFSGSGSGTDFTLTISSLQPEDFATYYCQHFWGTPTFGGGTKVEIK
notes: Humanized; also called 5D9 VH variant 3 / 5D9 VL variant 5
B13: Nectin-4 5D9 VH4/VL3 (antibody, V domains shown)
VH: QVQLQQSGPGLVKPSETLSLTCTVSGFSLTNYGVHWVRQPPGKGLEWLGVIWSGGSTDYNPSLKSRLTISRDTSKNQVSFKMSSVTAADTAVYYCARSGKWYYFDYWGQGTLVTVSS
VL: DIQMTQSPSSLSASVGDRVTITCRASQSIYSNLAWYQQKPGKAPKLLVYAATNLASGVPSRFSGSGSGTDFTLTISSLQPEDFATYYCQHFWGTPTFGGGTKVEIK
notes: Humanized; also called 5D9 VH variant 4 / 5D9 VL variant 3
B14: Nectin-4 5D9 VH2/VL5 (antibody, V domains shown)
VH: QVQLQESGPGLVKPSETLSLTCTVSGFSITNYGVHWIRQPPGKGLEWLGVIWSGGSTDYNASLVSRVTISRDTSKSQFFLKLNSVQADDTAVYYCARSGKWYYFDYWGQGTTVTVSS
VL: DIQMTQSPSSLSASVGDRVTITCRASQSIYSNLAWYQQKPGKAPKLLVYAATNLQSGVPSRFSGSGSGTDFTLTISSLQPEDFATYYCQHFWGTPTFGGGTKVEIK
notes: Humanized; also called 5D9 VH variant 2 / 5D9 VL variant 5

Legend:
[1] = molecular target: T1, human nectin-4 protein expressed on the …; assay: cell-based or functional assay
[2] = molecular target: T2, recombinant human Nectin-4-His protein; assay: ELISA, coated antigen

Binder | Cell kill IC50, HekNectin4 [1] [nM] | Cell kill IC50, MDA-MB468 [1] [nM] | Cell kill IC50, SKBR3 [1] [nM] | EC50 [2] [nM]
B1 | 0.249 | 1.42 | 15 | 0.225
B2 | 2.94 | 10.3 | 9.36 | 0.321
B3 | 3.35 | 10.3 | 9.85 | 0.368
B4 | 0.277 | 5.17 | 9.02 | 0.228
B5 | 3.93 | 21.4 | 14.7 | 0.279
B6 | 1.41 | 10.2 | 10.1 | 0.346
B7 | 55.5 | 19.3 | 14.4 | 172
B8 | 27.1 | 15.6 | 10.6 | 23.9
B9 | 54.8 | 17.7 | 15.3 | 8.62
B10 | 33.7 | 21.4 | 15.9 | 108
B11 | 41.1 | 40.5 | 26 | 43600
B12 | 40 | 43.3 | 14.9 | 7.23
B13 | 0.333 | 3.71 | 6.46 | 0.204
B14 | 182 | 252 | 234 | 14.7

Source: patent US20250101098A1 (R P SCHERER TECHNOLOGIES, published 2025)
